Results taken from the RNAGym collection of RNA variant scans (doi:10.1073/pnas.2313332121).
Fewer inactive variants are shown than the library holds.

B1: TPR 5TU (parent)
chain: GGAUCUUCUCGAUCUAACAAAAAAGACAAAUCUGCCACAAAGCUUGAGAGCAUCUUCGGAUGCAGAGGCGGCAGCCUUCGGUGGCGCGAUAGCGCCAACGUUCUCAACUAUGACACGCAAAACGCGUGCUCCGUUGAAUGGAGUUUAUCAUG

Variants of: B1
Assay: polymerase ribozyme fitness, log enrichment relative to wild type (log ratio); higher = more active; in vitro selection for triplet polymerase activity
Outline: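 For each subunit of a heterodimeric triplet polymerase ribozyme, a mutant library was built by PCR and transcribed, then taken through a single in vitro selection round in triplicate. Selection involved annealing to a biotinylated primer, the partner subunit and triplets, incubation frozen at −7 °C, gel excision of extended constructs, capture on streptavidin beads and RT-PCR. Genotypes were retained after Illumina sequencing of inputs and outputs only with ≥10 input reads and ≥1 read in each output. Fitness is defined as the logarithm of a genotype's enrichment relative to wild-type enrichment, using inverse-variance-weighted averages across replicates, with the logarithm taken to base 2.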

Row | Variant | polymerase ribozyme fitness (log ratio)
1 | A91G U144A | -3.08
2 | G86U A147G | -3.45
3 | C93U C99A G128C | ≤ -4.2
4 | G88U U127C | -4.15
5 | G92A C103A G126A | -3.74
6 | G88A U101G U102G A138U U139G | ≤ -4.2
7 | G92U U101G C131U | 0.547
8 | G92U G133C | -2.1
9 | C87A U146G | ≤ -4.2
10 | G88U C95G C125U | ≤ -4.2
11 | G86U G88A | ≤ -4.2
12 | C87G C93U C99A U134G G141U | ≤ -4.2
13 | C93U U146G | -1.47
14 | C93U U146A | -1.46
15 | A91G G140A | -4.12
16 | C87A C93G C108G | ≤ -4.2
17 | G94C G100U | -3.69
18 | G94A U101C | -0.823
19 | C87G G92C C105U | 0.371
20 | G94C A122C | -0.988
21 | G88U A115C A120G | -3.89

Row | Variant | polymerase ribozyme fitness (log ratio)
22 | C87U C105U A107U | -3.79
23 | U90G C116G | -3.78
24 | C93A A115C | -3.22
25 | C93U C99G G136A U145G | -1.59
26 | G86C C99U | -2.83
27 | C93G A119U | -3.51
28 | C87U U104G | -0.825
29 | G86C U151G | ≤ -4.2
30 | C87U C105U | -2.21
31 | C87A G126A | -4.04
32 | C87U A89G C103U A115C C123U G143U | ≤ -4.2
33 | C93G C96A C105U C116U | -4.17
34 | G88U C108G C118U A120U | ≤ -4.2
35 | G86U C103A A121G | -2.73
36 | A89C G92U | -1.92
37 | C93U C95U | -2.43
38 | U90C A91U C114U C118U U144G | -4.15
39 | C87G A113C A138U U146C | ≤ -4.2
40 | G94C A150U | 1.09
41 | C87U C131A G140A | -3.61
42 | G86U C123A | -1.99

Row | Variant | polymerase ribozyme fitness (log ratio)
43 | G86U C123G | -1.55
44 | A89U C96U C118U A122G U139G | -0.0743
45 | A89U G94U | -1.2
46 | C93G C114U | -3.97
47 | A91C U144C | -4.19
48 | G94C G124U G143U | -3.6
49 | C93G A98U C114A | -3.85
50 | C87U G124A | -0.0826
51 | A91G C95U C125U | -4.09
52 | G88U C95G U144C | ≤ -4.2
53 | G92A A98C G133C A142U | ≤ -4.2
54 | G88A C96G | -3.74
55 | A89U A122U | -0.615
56 | U90C U102C A107U | ≤ -4.2
57 | A91G G152A | -3.71
58 | C93U C149A | -4.05
59 | G94C A115U | -2.98
60 | C93A U127C | -3.6
61 | G86U G100A C131U | ≤ -4.2
62 | A91U A147U | -3.99
63 | C87A G117C G136U G141U | ≤ -4.2

Row | Variant | polymerase ribozyme fitness (log ratio)
64 | A91U U134G A137U | ≤ -4.2
65 | A91G C118G | -3.49
66 | A91G C118U | -3.15
67 | C93U A98G G124C | -1.76
68 | A91G A142C | -3.5
69 | U90A C99U U111C | -4.13
70 | A91C A115G U146A | ≤ -4.2
71 | C93A G124C | -2.88
72 | C87U C108G U145G | ≤ -4.2
73 | C87G A107G | ≤ -4.2
74 | G92U A138G | -3.48
75 | C93U A137G C149U | -2.47
76 | C93U G141A | -1.7
77 | A91U U127G | ≤ -4.2
78 | A91U G124U C131G | ≤ -4.2
79 | G86U G133A | ≤ -4.2
80 | C87U C129G | -2.63
81 | G92A G141C A147U | -3.44
82 | G92A G126U | -2.26
83 | C93G U144A | -2.68
84 | C87G C105A | ≤ -4.2
